These results are taken from the DeepSol protein solubility set.

This data set is described as follows: soluble on expression in E. coli; label from the status in PepcDB or PDB records.
Take “MAEITEVRIYKSKGNGSVKAYASVSFDNEFVVKGLKVVEGEKGLWVSMPSRRMKDGSFQDVFHPVSREARDKIVDAVLKAYQEQE”: the “soluble on expression in E. coli” value is listed as “not soluble”.

Consider “MSLSLLEVCADLCGQQTLSLFQSSPSVQQVSQTRDLQDIIGQQQGKRALEIAAAGNHNLLFLGPPGTGKTMLASRLCDLLPEMSDEEAMETASIASLTQQEINQHNWKLRPFRAPHHSSSMAALVGGGTIPRPGEISLAHNGLLFLDEMPEFERKVLDSLREPLESGEIVISRAQGKTRFPARFQLVGALNPSPTGYYEGSQARANPQSILRYLSRLSGPLLDRFDMSIEIPALPKGTLANGGDRGESTAAVRQRVWVARERMLARSGKVNALLQSREIEQYCPLLKADAEFLESALHRLGLSIRAYHRIIKVARTIADLQGEAQIARPHLAEALGYRAMDRLLKQLSAQNEGHHHHHH”, for which the “soluble on expression in E. coli” value is “not soluble”. The value for “AIAPTELSRTEKKSLIWLFKEHGLRVDGRSALRSRSVSVAVDVLPSTAGSSRVFVGRTNDVLVGINLELRQYNLPAHAEDDAKRGSIAFSVEFCGVASPEFQGRSTEVLEAELVSFLDTAYAASPEFLADLFCREQRLASDPGTLRVCCWDVYVDVLVLGASGGNILDAVTYAVRAALATTVVPSVYWQDSESGGSWELDDRAEYCALLNASNAPLSASGAFIPPLVRDSRTEHDQVTLVAPRWFIIDPCAEEETLAGCFLSVASDSAQHLRAIWKRGSLPVEPDVVLDAAQQCIRDSAYACQEMDHFISELVATEESESVDDVPG” was “soluble”. In the case of “MGHHHHHHSHMGNNSESKGSASDSKGAETFTYKAENGNVKIPKHPKRVVVMADGYYGYFKTLGINVVGAPENVFKNPYYKGKTNGVENIGDGTSVEKVIDLNPDLIIVWTTQGADIKKLEKIAPTVAVKYDKLDNIEQLKEFAKMTGTEDKAEKWLAKWDKKVAAAKTKIKKAVGDKTISIMQTNGKDIYVFGKDFGRGGSIIYKDLGLQATKLTKEKAIDQGPGYTSISLEKLPDFAGDYIFAGPWQSGGDDGGVFESSIWKNLNAVKNGHVYKMDPIGFYFTDPISLEGQLEFITESLTK”, the “soluble on expression in E. coli” value is listed as “soluble”. Take “KKVCACPKILKPVCGSDGRTYANSCIARCNGVSIKSEGSCPTGI”: the “soluble on expression in E. coli” value is reported as “soluble”. “MAETSNASAEPELIYFEVTSNEERFVHMVFQMASNTTNQFLIFVKDDETCFRAQRALYSSGEMTQCFLKNMNKDAFKKRKQELKNGTAKVWIADRSVIGKLVDCFSKELTVFLYDGISNDFPKQAVGKCHSVISLKQSRHTAVNTSDGLFEQVFHICQLYNATFTSPIKDWMASSKNGDLPENADTMKLVIARPSELLNSASTLRSFNDIVAKDPRILNLMEAFKVIENKARIDKDDNSRGMLYLCVKMRSELDGQYVTKNKADQFYRVEFNTLKNMKNKSEFLRKMCPS”: the “soluble on expression in E. coli” value was “not soluble”. The value for “MEQKFCQSCGMPLNPEVLGTEKDGSKNEEYCTYCYADGHFTVECTMDEMINQCAQFVDEFNKGSEVKMTKEEAIANMKQFFPMLKRWKQ” was “not soluble”; that for “MGSDKIHHHHHHLTYDEIKKNKEVCECLKKGNENLGVLGFTDHSVAHCTMVAKRAAYILKKFGYSESDIEMVKIAGFMHDIGNVVNRSRHAEYGAILANEILKETDMSLKDRITVVSAIGHHDESTGGATDPISAALIIADKTDVRRNRVRNKAKENFDIHDRVNYAVTDAALKINMDKKVIALNLQIDTKICSMYEYFEIFLGRMMMCRGAAEVLGATFKLTANGSKVL” was “not soluble”.

“MTMEKGMSSGEGLPSRSSQVSAGKITAKELETKQSYKEKRGGFVLVHAGAGYHSESKAKEYKHVCKRACQKAIEKLQAGALATDAVTAALVELEDSPFTNAGMGSNLNLLGEIECDASIMDGKSLNFGAVGALSGIKNPVSVANRLLCEGQKGKLSAGRIPPCFLVGEGAYRWAVDHGIPSCPPNIMTTRFSLAAFKRNKRKLELAERVDTDFMQLKKRRQSSEKENDSGTLDAVGAVVVDHEGNVAAAVSSGGLALKHPGRVGQAALYGCGCWAENTGAHNPYSTAVSTSGCGEHLVRTILARECSHALQAEDAHQALLETMQNKFISSPFLASEDGVLGGVIVLRSCRCSAEPDSSQNKQTLLVEFLWSHTTESMCVGYMSAQDGKAKTHISRLPPGAVAGQSVAIEGGVCRLESPVN”: the “soluble on expression in E. coli” value is on record as “soluble”. With “MSLENTDINISALLNVDIDKILKQTIKEKIEKLMEIELNAYLEENPGIKNGKYKRDLKTKYGEIKQLNVPRDRDSNFHTQVIEPYNRSIGMEDLIVSMYSNGISTRRIAGIMEDILGNKYSKSTISRITDLTIEEVYKFINRPLDKRYIAVFLDGLFFYLRRGNVDKEPVIFALGIKETGEYEVLGFYLTVKESHNAYKEVLEDLYNRGLKEPLLIVADGIKNLDEEVMEIYPRSEFQLCTIHYARGLKSNVREKDIDEITIDANKMFKCDNKEEAIIRFNDFKYKWKSKYPKVIYNTEKNLGKLLRFYNYPVNIRKSLKSTNAIERFNGEVRRRVKTISSFPDEDSAMKVFYYKSIEYNSKHAFRKMNGYYKCKDEIKEMFQKREGHHHHHH”, the “soluble on expression in E. coli” value is reported as “not soluble”. The value for “MNPRQAFFACLHRSPPALLEAALWIAAEHDPQVVPGLLLEEFKQLQQQVGSSLPTLPANELGQPLLRRLNDLGFQQDEHLPLRPQAALMDKVLERRRGQPLALALIALELAQRLQVPLAGVNFPGHFLLRVPGADHLLDPCGGRRLYPNDCRELLQRQYGAHIKLSAEHLASAEPLQMFQRLSRNLRQLHLSYDDHLGALINAERVLEIGNGSAADYLARASLYQRLECPNAERFDLEHALLLSDDPIQRLRLTERLGHLPPNTIVHLEHHHHHH” was “soluble”; that for “GVRFAFGPTVDFHFGENYAFSTGAWYLSSRAGLSQSVPGLTYKEIVSLQSVQIPVTFKAYTNEIATNMKLYFQLGGLATFNFYEKFKESTPSNSSYDDKYNVFDVSLYVGAGVSYKIGESNALFGGFYYSRGLMNMLDGSTIPGTSDRYKKAAKYNNDLVGLEVGITF” was “not soluble”; that for “MGSDKIHHHHHHMALSLRACILLLKEHHLLKSAAIQNTEDVDMTGIAYDSRKVSGPTLFFCKGDKFRPIYLSMAKDNGARTYVAEKPYVEGNGLNALIVRNITKAMAILSAAFFDYPQDDLFVIAYTGTKGKTTASYFTEAILNEARPRHIALFSTIDTVVGPEPDQRFKSNLTTPESLDLFRDMREAVENGMTHLVMEVSSQAYLRNRVFGLTYDVGFFLNITPDHIGPNEHPTFANYLHNKLQLLVNARKVVINAETEHFDQVYAAATTTTYPESIYLFASAGFRPKRDDIDIDFRFDSQEADVAESRFTLVPVTEKAAALNIGGHYSLALIGDFNESNATAAIIGAGLAGVDASAAVPGIAKVKIPGRMEHTKVAGHGAVYVDYAHNYASMKALLSFLKHAYKDPRLLVVVGSPGDKGVSRRPGFAKVLTEFATEAFLTTDDPGYEDPANIIEEIDSKIDHSKVKVHKVLDRKKAIAEAISDSGPNDIVVVAGKGADPYQKVRGVNTPWPTDMAVVKQVAKSLQEG” was “not soluble”. The value for “MGSDKIHHHHHHMETIKAIHTRHSVRAFKDDPIEPQLLTMIVTDAQQTPSWGNSQPWQVYIATGHALTNIKQHYATAAEQGIAEDADLAKVHRGDFSAFASQNMGHWVGTFRPVIDSDPTTYWDSRANLYRAPAIAYLVLDANPNSWSIYDLGAFSQTLMLAATARGVQSVPSYELVKYPAIVRNALGMPANKVVAMGIALGYEKPEKPLNQFRTDRVATPQVLHIIN” was “not soluble”; that for “MNSEQQQTVFLCVSYLLSYPDEQWAESLPDCLDAIRSLDDETVRAPLLAFAEQINSIPARQRMEQYVETFDFGKKTNLYLTYMTNGEQRERGIELVALKARYQAAGFAVSDHELPDYLPLMLEWMAYADQEHTTALLADYAGHIREIGDRLAAAGSPYAQLFDALNHTFTQLGVTPLPKGGATAWPANFSG” was “not soluble”.

In the case of “MASEQEKTADFGFRTVAKDEKEVMVAEVFHSVAAKYDLMNDLMSFGIHRIWKRFTIECSGVRRNQRVLDLAGGTGDLTAKFSRMVGEGGEVILADINASMLKVGREKLRNKGIIDNINYVQANAEALPFPDDFFDCITISFGLRNVTDKNKALRSMYRVLKPGGRLLVLEFSKPVIKQLSTIYDAYSFHILPRIGEAVASDAGSYRYLAESIRMHPDQETLKGMMSDAGFDSVNYFNLTGGIVALHRGFKFLEHHHHHH”, the “soluble on expression in E. coli” value is “not soluble”.
